We go through one molecule from publication PMC5862942, “JMJD5 is a human arginyl C-3 hydroxylase” (Nature Communications, 2018).

Where no end group is shown, it is not given here.

This assay has as its target N-terminally truncated JMJD5 (Jumonji-C domain-containing protein 5), wild type (human, UniProt Q8N371 183-416). Description: cell-based or functional assay.

Chain of N-terminally truncated JMJD5 (Jumonji-C domain-containing protein 5), wild type (Q8N371 other isoform, or with tags, fused parts or gaps): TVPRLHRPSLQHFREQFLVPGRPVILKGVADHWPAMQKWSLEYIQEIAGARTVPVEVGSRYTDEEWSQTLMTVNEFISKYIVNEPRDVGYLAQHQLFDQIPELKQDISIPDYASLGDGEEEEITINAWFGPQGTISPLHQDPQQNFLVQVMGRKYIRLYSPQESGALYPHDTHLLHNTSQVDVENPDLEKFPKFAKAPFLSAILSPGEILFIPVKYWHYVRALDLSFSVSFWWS

For VPRRLGPKRASRIRKL-NH2 [40S ribosomal protein S6 (RPS6) peptide, residues 129-144], the “apparent Km of the RPS6 129-144 peptide in JMJD5-catalysed Arg137 hydroxylation (MALDI-MS-based assay, 37 °C)” value is 60.4 µM.
